Experiments:
[1] = test system: HER2-low breast cancer patient-derived xenograft (PDX) models CTG-1520 (IHC 0), CTG-0012 (IHC 1+), CTG-0670 (IHC 2+); assay: Tumor volume in HER2-low breast cancer PDX models; type: in vivo, Mice; conditions: single intravenous dose 0.3, 1, 2 or 5 mg/kg; in a subset of the models
Experimental: First, the anti-tumor effect of DV as a monotherapy was tested in three PDX models with varying HER2 expression levels. Three breast cancer PDX models were used: CTG-1520 (IHC 0), CTG-0012 (IHC 1+), and CTG-0670 (IHC 2+). Mice (n=10/group) were treated with the indicated concentrations of DV (intravenous, single dose), and tumor volume was measured over time. […] Dashed lines represent carry-over of tumor volumes from individual animals that were removed from study when their tumors reached maximum allowable size (less than 3/10 animals per group).
Next, DV and tucatinib were tested as monotherapies and in combination in the three PDX models. Mice (n=10/group) were treated with the indicated concentrations of tucatinib (50 mg/kg oral, twice daily), DV (1 or 2 mg/kg, intravenous, single dose), or a combination of tucatinib and DV, and tumor volume was measured over time. […] Dotted lines represent carry-over of tumor volumes from individual animals that were removed from study when their tumors reached maximum allowable size (less than 3/10 animals per group).

MDA-MB-361 = assay: 144-hour CellTiter-Glo cytotoxicity assay, DV and T-DXd; type: cell-based; conditions: MDA-MB-361, 60,000 HER2 receptors/cell, 1-10,000 ng/mL
Experimental: (§1) DV and T-DXd were evaluated against breast cancer cell lines spanning a range of HER2 expression levels (calculated by quantitative flow cytometry): HCC-1954 with 1,259,000 HER2 receptors/cell, MDA-MB-361 with 60,000 HER2 receptors/cell, and HCC-38 with 20,000 HER2 receptors/cell. Drugs were titrated (1-10,000 ng/mL), and viability was tested in a 144-hour CellTiter-Glo cytotoxicity assay.

HCC-38 = assay: as above; type: cell-based; conditions: HCC-38, 20,000 HER2 receptors/cell, 1-10,000 ng/mL
Experimental: as §1

HCC-1954 = assay: as above; type: cell-based; conditions: HCC-1954, 1,259,000 HER2 receptors/cell, 1-10,000 ng/mL
Experimental: as §1

[2] = test system: PDO SG-553-819-8499 (HER2 moderate); assay: Patient-derived organoid cytotoxicity, caspase-3/7 fluorescence imaging; type: cell-based; conditions: DV 27-6,700 ng/mL, T-DXd 41-10,000 ng/mL
Experimental: (§2) DV and T-DXd were also tested against a panel of PDOs: HER2 low SG-111-444-6273, HER2 low SG-634-395-2953, and HER2 moderate SG-553-819-8499. DV was titrated across a range of 27-6,700 ng/mL, while T-DXd was titrated across a range of 41-10,000 ng/mL. Drug and media was exchanged every four days. Analysis was conducted with fluorescence imaging: PDOs were identified from clusters of Hoechst positive cells, and caspase-3/7 was used for the identification of apoptotic cells. Mean caspase-3/7 intensity was measured per well and normalized to cell count.

[3] = test system: PDO SG-111-444-6273 (HER2 low); assay: as above; type: cell-based; conditions: DV 27-6,700 ng/mL, T-DXd 41-10,000 ng/mL
Experimental: as §2

[4] = test system: PDO SG-634-395-2953 (HER2 low); assay: as above; type: cell-based; conditions: DV 27-6,700 ng/mL, T-DXd 41-10,000 ng/mL
Experimental: as §2

HER2 = HER2 (Homo sapiens, UniProt P04626); assay: Internalization of anti-HER2 ADCs DV, T-DM1 and T-DXd; type: cell-based; design: endogenous in cells; host or cells: SK-BR-3, BT-474, HCC-202, EFM-192C, BT-483, CAMA-1, NCI-N87, OE19, RERF-GC-1B; conditions: results considered preliminary
Experimental: The internalization experiments were conducted by detecting an antibody-bound pH sensitive probe using automated time-lapse microscopy. Briefly, breast cancer cell lines SK-BR-3, BT-474, HCC-202, EFM-192C, BT-483, and CAMA-1 and gastric cancer cell lines NCI-N87, OE19, and RERF-GC-1B were seeded in 96-well flat clear-bottom black tissue culture-treated microplates (Corning, cat #3603). Cells were plated at 1.5×10^4-2.5×10^4 cells/200 μL/well in growth medium and allowed to adhere overnight at 37° C. Disitamab, trastuzumab, and isotype control antibody (human IgG) were labeled with IncuCyte Fabfluor-pH Red Antibody Labeling Reagent (Essen Bioscience, cat #4722) according to the manufacturer's protocol. Volumes of the test antibodies, Fabfluor reagent and medium required were calculated at 2× the final assay concentration, and the Fabfluor reagent was added at a molar ratio of 1:3 to the antibody. Fabfluor dye fluoresces only upon exposure to an acidified compartment, namely endocytic vesicles and lysosomes, signifying internalization and intracellular processing of the ADC. Antibody and Fabfluor were mixed gently and incubated at 37° C. for 15 minutes. Media containing Fabfluor-labeled disitamab or trastuzumab ([…] final concentration) was added to cells. The plates were arranged on microplate trays in the IncuCyte SX3 system (Essen Bioscience), and scans were acquired using the Standard protocol. Phase data and red channel data (acquisition time set to 400 ms) were collected, with 4 images per well every 30 minutes for the first 6 hours and every 2 hours after that for up to 40 hours with the objective set at 10×. Quantification of fluorescence signal intensity was performed using the IncuCyte software analysis tool.
(§3) Internalization of anti-HER2 ADCs DV, T-DM1, and T-DXd (two HER2-targeting ADCs with trastuzumab as a backbone) was also tested in breast cancer cell lines SK-BR-3, HCC-202, and BT-483.

[5] = test system: panel of breast cancer cell lines spanning a range of HER2 expression; assay: 96-hour CellTiterGlo cytotoxicity assay of DV, T-DM1 and T-DXd; type: cell-based
Experimental: The following cell lines were cultured in the vendor-recommended conditions: breast cancer cell lines SK-BR-3, BT-474, UACC-893, HCC-202, JIMT-1, and BT-483. Cytotoxicity assays were performed using CellTiter-Glo (CTG) Luminescent Cell Viability assay (Promega Corporation) as per the manufacturer's protocol. Cells were seeded in 96-well plates and incubated overnight as previously described (1). […] Cells were then incubated at 37° C. in 5% CO2, and cell viability was measured at 96 hours after dosing.
as §3

Substance: disitamab vedotin [DV]
- anti-tumor effects (tumor volume) of DV monotherapy [1]: anti-tumor effects in a dose-dependent manner
- single-agent cytotoxic activity as compared to T-DXd (MDA-MB-361): more potent single-agent cytotoxic activity
- single-agent cytotoxic activity as compared to T-DXd (HCC-38): more potent single-agent cytotoxic activity
- single-agent cytotoxic activity as compared to T-DXd (HCC-1954): more potent single-agent cytotoxic activity
- single-agent cytotoxic activity as compared to T-DXd (caspase-3/7 intensity) [2]: more potent single-agent cytotoxic activity
- single-agent cytotoxic activity as compared to T-DXd (caspase-3/7 intensity) [3]: more potent single-agent cytotoxic activity
- single-agent cytotoxic activity as compared to T-DXd (caspase-3/7 intensity) [4]: more potent single-agent cytotoxic activity
- internalization compared to T-DM1 and T-DXd (HER2; BT-483): enhanced internalization
- internalization compared to T-DM1 and T-DXd (HER2; HCC-202): enhanced internalization
- internalization compared to T-DM1 and T-DXd (HER2; SK-BR-3): enhanced internalization
- IC50 compared with the IC50 for T-DM1 and T-DXd ([5]; for each cell line of the panel): lower
- in vitro cytotoxic activity against the panel of breast cancer cell lines ([5]; variable HER2 expression, including HER2-low range, 0.01-10,000 ng/mL): in vitro cytotoxic activity
